The assay has as its target holo-hemoglobin (UniProt P01966). Nature of the assay: SPR. On the technique in general: Surface plasmon resonance follows binding to a sensor surface in real time, without labels.
UniProt P01966, sequence (P01966 whole entry, chain 1 of 2): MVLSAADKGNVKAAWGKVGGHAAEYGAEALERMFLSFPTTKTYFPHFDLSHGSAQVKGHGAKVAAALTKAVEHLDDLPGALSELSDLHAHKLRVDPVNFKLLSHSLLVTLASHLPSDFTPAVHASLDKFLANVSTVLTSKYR
UniProt P01966, sequence (P02070 whole entry, chain 2 of 2, further chain): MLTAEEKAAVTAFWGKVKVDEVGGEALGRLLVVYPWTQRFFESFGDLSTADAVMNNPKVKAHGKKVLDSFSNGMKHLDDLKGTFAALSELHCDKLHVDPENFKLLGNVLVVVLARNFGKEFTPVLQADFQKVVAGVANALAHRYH

As a reminder, the Kd is a measure of binding affinity in units of concentration. On to “IsdX1 (amino acids 26-146), wild-type, apo form (domain or fragment)”, for which the Kd came to 15 nM.

Values taken from PMC3297588.
